To fix the notation:
B1: 373_H12 (antibody, V domains shown)
VH: EVQLLESGGGLVQPGGSLRLSCAASGFTFSDYSMNWVRQAPGKGLEWVSGINYNSGYKGYADSVKGRFTISRDNSKNTLYLQMNSLRAEDTAVYYCARSATWHDTHLDYWGQGTLVTVSS
VL: DIQMTQSPSSLSASVGDRVTITCRASQSILTYLNWYQQKPGKAPKLLIYAATSRASGVPSRFSGSGSGTDFTLTISSLQPEDFATYYCQQSYNSPLTFGGGTKVEIK
B2: 374_E04 (antibody, V domains shown)
VH: EVQLLESGGGLVQPGGSLRLSCAASGFTFSSYSMNWVRQAPGKGLEWVSGINYNSGYKSYADSVKGRFTISRDNSKNTLYLQMNSLRAEDTAVYYCARSATWHDTHLDYWGQGTLVTVSS
VL: DIQMTQSPSSLSASVGDRVTITCRASQSILSYLNWYQQKPGKAPKLLIYAVTSRASGVPSRFSGSGSGTDFTLTISSLQPEDFATYYCQQSYNNPLTFGGGTKVEIK
B3: 376_E09 (antibody, V domains shown)
VH: EVQLLESGGGLVQPGGSLRLSCAASGFTFDSYSMNWVRQAPGKGLEWVSGINYNSGYKSYADSVKGRFTISRDNSKNTLYLQMNSLRAEDTAVYYCARSATWHDTHLDYWGQGTLVTVSS
VL: DIQMTQSPSSLSASVGDRVTITCRASQSILTYLNWYQQKPGKAPKLLIYAATSRHSGVPSRFSGSGSGTDFTLTISSLQPEDFATYYCQQSYDTPLTFGGGTKVEIK
B4: 367_G08 (antibody, V domains shown)
VH: EVQLLESGGGLVQPGGSLRLSCAASGFTFDSYGMNWVRQAPGKGLEWVSNINYNGGYKGYADSVKGRFTISRDNSKNTLYLQMNSLRAEDTAVYYCARSATWHDTHLDYWGQGTLVTVSS
VL: DIQMTQSPSSLSASVGDRVTITCRASQSILSYLNWYQQKPGKAPKLLIYAATSRASGVPSRFSGSGSGTDFTLTISSLQPEDFATYYCQQSYENPLTFGGGTKVEIK
B5: 365_H04 (antibody, V domains shown)
VH: EVQLLESGGGLVQPGGSLRLSCAASGFTFSDYGMNWVRQAPGKGLEWVSGINYNSGYKSYADSVKGRFTISRDNSKNTLYLQMNSLRAEDTAVYYCARSATWHDTHLDYWGQGTLVTVSS
VL: DIQMTQSPSSLSASVGDRVTITCRASQSILTYVNWYQQKPGKAPKLVIYAATSRASGVPSRFSGSGSGTDFTLTISSLQPEDFATYYCQQSYESPLTFGGGTKVEIK
B6: 375_B10 (antibody, V domains shown)
VH: EVQLLESGGGLVQPGGSLRLSCAASGFTFDSYSMNWVRQAPGKGLEWVSGINYNSGYTSYADSVKGRFTISRDNSKNTLYLQMNSLRAEDTAVYYCARSATWHDTHLDYWGQGTLVTVSS
VL: DIQMTQSPSSLSASVGDRVTITCRASQSILSYLNWYQQKPGKAPKLLIYAATSRHSGVPSRFSGSGSGTDFTLTISSLQPEDFATYYCQQSYDLPLTFGGGTKVEIK
B7: 371_B05 (antibody, V domains shown)
VH: EVQLLESGGGLVQPGGSLRLSCAASGFTFSSYSMNWVRQAPGKGLEWVSGINYNSGYTSYADSVKGRFTISRDNSKNTLYLQMNSLRAEDTAVYYCARSATWHDTHLDYWGQGTLVTVSS
VL: DIQMTQSPSSLSASVGDRVTITCRASQSILTYLNWYQQKPGKAPKLVIYAATSLASGVPSRFSGSGSGTDFTLTISSLQPEDFATYYCQQSDETPLTFGGGTKVEIK
B8: 373_E08 (antibody, V domains shown)
VH: EVQLLESGGGLVQPGGSLRLSCAASGFTFDSYGMNWVRQAPGKGLEWVSGINYNSGYTSYADSVKGRFTISRDNSKNTLYLQMNSLRAEDTAVYYCARSATWHDTHLDYWGQGTLVTVSS
VL: DIQMTQSPSSLSASVGDRVTITCRASQSIVSYVNWYQQKPGKAPKLLIYAVTSRASGVPSRFSGSGSGTDFTLTISSLQPEDFATYYCQQSYESPLTFGGGTKVEIK
B9: 376_H08 (antibody, V domains shown)
VH: EVQLLESGGGLVQPGGSLRLSCAASGFTFDSYGMNWVRQAPGKGLEWVSNINYNGGYKGYADSVKGRFTISRDNSKNTLYLQMNSLRAEDTAVYYCARSATWHDTHLDYWGQGTLVTVSS
VL: DIQMTQSPSSLSASVGDRVTITCRASQSILTYLNWYQQKPGKAPKLLIYAATSRHSGVPSRFSGSGSGTDFTLTISSLQPEDFATYYCQQSDSLPLTFGGGTKVEIK
B10: 376_C07 (antibody, V domains shown)
VH: EVQLLESGGGLVQPGGSLRLSCAASGFTFSSYSMNWVRQAPGKGLEWVSGINYNSGYKGYADSVKGRFTISRDNSKNTLYLQMNSLRAEDTAVYYCARSATWHDTHLDYWGQGTLVTVSS
VL: DIQMTQSPSSLSASVGDRVTITCRASQSILSYVNWYQQKPGKAPKLLIYAATSRHSGVPSRFSGSGSGTDFTLTISSLQPEDFATYYCQQSYDLPLTFGGGTKVEIK
B11: 373_F02 (antibody, V domains shown)
VH: EVQLLESGGGLVQPGGSLRLSCAASGFTFDSYSMNWVRQAPGKGLEWVSGINYNSGYKSYADSVKGRFTISRDNSKNTLYLQMNSLRAEDTAVYYCARSATWHDTHLDYWGQGTLVTVSS
VL: DIQMTQSPSSLSASVGDRVTITCRASQSILTYLNWYQQKPGKAPKLLIYAATSRASGVPSRFSGSGSGTDFTLTISSLQPEDFATYYCQQSYDTPLTFGGGTKVEIK
B12: 376_G01 (antibody, V domains shown)
VH: EVQLLESGGGLVQPGGSLRLSCAASGFTFDDYSMNWVRQAPGKGLEWVSGINYNSGYKSYADSVKGRFTISRDNSKNTLYLQMNSLRAEDTAVYYCARSATWHDTHLDYWGQGTLVTVSS
VL: DIQMTQSPSSLSASVGDRVTITCRASQSILSYVNWYQQKPGKAPKLVIYAVTSRASGVPSRFSGSGSGTDFTLTISSLQPEDFATYYCQQSYELPLTFGGGTKVEIK
B13: 372_H03 (antibody, V domains shown)
VH: EVQLLESGGGLVQPGGSLRLSCAASGFTFDSYGMNWVRQAPGKGLEWVSNINYNGGYKSYADSVKGRFTISRDNSKNTLYLQMNSLRAEDTAVYYCARSATWHDTHLDYWGQGTLVTVSS
VL: DIQMTQSPSSLSASVGDRVTITCRASQSIITYVNWYQQKPGKAPKLLIYAATSLASGVPSRFSGSGSGTDFTLTISSLQPEDFATYYCQQSYNLPLTFGGGTKVEIK
B14: 369_E04 (antibody, V domains shown)
VH: EVQLLESGGGLVQPGGSLRLSCAASGFTFSDYSMNWVRQAPGKGLEWVSGINYNSGYKSYADSVKGRFTISRDNSKNTLYLQMNSLRAEDTAVYYCARSATWHDTHLDYWGQGTLVTVSS
VL: DIQMTQSPSSLSASVGDRVTITCRASQSILSYVNWYQQKPGKAPKLVIYAATSRASGVPSRFSGSGSGTDFTLTISSLQPEDFATYYCQQSYSLPLTFGGGTKVEIK
B15: 365_E08 (antibody, V domains shown)
VH: EVQLLESGGGLVQPGGSLRLSCAASGFTFDSYSMNWVRQAPGKGLEWVSGINYNSGYTSYADSVKGRFTISRDNSKNTLYLQMNSLRAEDTAVYYCARSATWHDTHLDYWGQGTLVTVSS
VL: DIQMTQSPSSLSASVGDRVTITCRASQSIISYVNWYQQKPGKAPKLVIYAATSLASGVPSRFSGSGSGTDFTLTISSLQPEDFATYYCQQSYDLPLTFGGGTKVEIK
B16: 373_D09 (antibody, V domains shown)
VH: EVQLLESGGGLVQPGGSLRLSCAASGFTFDSYSMNWVRQAPGKGLEWVSGINYNSGYTSYADSVKGRFTISRDNSKNTLYLQMNSLRAEDTAVYYCARSATWHDTHLDYWGQGTLVTVSS
VL: DIQMTQSPSSLSASVGDRVTITCRASQSILTYLNWYQQKPGKAPKLVIYAATSRHSGVPSRFSGSGSGTDFTLTISSLQPEDFATYYCQQSYENPLTFGGGTKVEIK
B17: 374_G02 (antibody, V domains shown)
VH: EVQLLESGGGLVQPGGSLRLSCAASGFTFDSYSMNWVRQAPGKGLEWVSGINYNSGYTSYADSVKGRFTISRDNSKNTLYLQMNSLRAEDTAVYYCARSATWHDTHLDYWGQGTLVTVSS
VL: DIQMTQSPSSLSASVGDRVTITCRASQSILTYLNWYQQKPGKAPKLLIYAASSLQSGVPSRFSGSGSGTDFTLTISSLQPEDFATYYCQQSYDTPLTFGGGTKVEIK
B18: 367_E10 (antibody, V domains shown)
VH: EVQLLESGGGLVQPGGSLRLSCAASGFTFSSYGMHWVRQAPGKGLEWVSSINYNGGYTGYADSVKGRFTISRDNSKNTLYLQMNSLRAEDTAVYYCARAATWHDTHLDYWGQGTLVTVSS
VL: DIQMTQSPSSLSASVGDRVTITCRASQSILSYVNWYQQKPGKAPKLLIYAATSRASGVPSRFSGSGSGTDFTLTISSLQPEDFATYYCQQSYELPLTFGGGTKVEIK
B19: 366_E03 (antibody, V domains shown)
VH: EVQLLESGGGLVQPGGSLRLSCAASGFTFDSYGMNWVRQAPGKGLEWVSNINYNGGYKSYADSVKGRFTISRDNSKNTLYLQMNSLRAEDTAVYYCARSATWHDTHLDYWGQGTLVTVSS
VL: DIQMTQSPSSLSASVGDRVTITCRASQSILTYLNWYQQKPGKAPKLVIYAATSRHSGVPSRFSGSGSGTDFTLTISSLQPEDFATYYCQQSYSNPLTFGGGTKVEIK
B20: 374_B11 (antibody, V domains shown)
VH: EVQLLESGGGLVQPGGSLRLSCAASGFTFSSYSMNWVRQAPGKGLEWVSGINYNSGYKSYADSVKGRFTISRDNSKNTLYLQMNSLRAEDTAVYYCARSATWHDTHLDYWGQGTLVTVSS
VL: DIQMTQSPSSLSASVGDRVTITCRASQSILTYVNWYQQKPGKAPKLVIYAATSRASGVPSRFSGSGSGTDFTLTISSLQPEDFATYYCQQSYDLPLTFGGGTKVEIK
B21: 376_G11 (antibody, V domains shown)
VH: EVQLLESGGGLVQPGGSLRLSCAASGFTFSSYSMNWVRQAPGKGLEWVSGINYNSGYKSYADSVKGRFTISRDNSKNTLYLQMNSLRAEDTAVYYCARSATWHDTHLDYWGQGTLVTVSS
VL: DIQMTQSPSSLSASVGDRVTITCRASQSIVTYVNWYQQKPGKAPKLVIYAATSLASGVPSRFSGSGSGTDFTLTISSLQPEDFATYYCQQSYNLPLTFGGGTKVEIK

Our source for the optical density values is patent US20210380703A1.

The assay has as its target human Fc (human). Briefly: ELISA, negative control. In general terms: ELISA stands for enzyme-linked immunosorbent assay.
Molecule B1 had an optical density of 0.162 OD.
Regarding B2, the optical density was 0.169 OD.
Consider B3, for which the optical density came to 0.246 OD.
The molecule B4 returned an optical density of 0.33 OD.
Molecule B5 yielded an optical density of 0.371 OD.
As for B6, the optical density came to 0.17 OD.
The figure for B7 is 0.246 OD; for B8 it is 0.165 OD; for B9 it is 0.274 OD.
Take B10: the optical density was 0.265 OD.
The figure for B11 is 0.175 OD; for B12 it is 0.227 OD.
The figure for B13 is 0.437 OD; for B14 it is 0.387 OD; for B15 it is 0.298 OD.
The molecule B16 returned an optical density of 0.16 OD.
B17 returned an optical density of 0.175 OD.
The molecule B18 returned an optical density of 0.271 OD.
Molecule B19 gave an optical density of 0.384 OD.
The figure for B20 is 0.17 OD; for B21 it is 0.285 OD.
